For this experiment, the target named is interferon α (IFNα) (UniProt P01563). The experiment in a line: SPR.

B1: human IFNAR1 (receptor)
chain: KNLKSPQKVEVDIIDDNFILRWNRSDESVGNVTFSFDYQKTGMDNWIKLSGCQNITSTKCNFSSLKLNVYEEIKLRIRAEKENTSSWYEVDSFTPFRKAQIGPPEVHLEAEDKAIVIHISPGTKDSVMWALDGLSFTYSLVIWKNSSGVEERIENIYSRHKIYKLSPETTYCLKVKAALLTSWKIGVYSPVHCIKTTVENELPPPENIEVSVQNQNYVLKWDYTYANMTFQVQWLHAFLKRNPGNHLYKWKQIPDCENVKTTQCVFPQNVFQKGIYLLRVQASDGNNTSFWSEEIKFDTEIQAFLLPPVFNIRSLSDSFHIYIGAPKQSGNTPVIQDYPLIYEIIFWENTSNAERKIIEKKTDVTVPNLKPLTVYCVKARAHTMDEKLNKSSVFSDAVCEKTKPGNTSKIWLIVGICIALFALPFVIYAAKVFLRCINYVFFPSLKPSSSIDEYFSEQPLKNLLLSTSEEQIEKCFIIENISTIATVEETNQTDEDHKKYSSQTSQDSGNYSNEDESESKTSEELQQDFV
As for B1, the Kd (in general, the equilibrium constant for the complex coming apart) worked out at 4.58 nM.
